According to the nanobody polyreactivity screen of Harvey et al. (2022):

Assay: yeast display, Sf9 membrane polyspecificity reagent, FACS + sequencing; frameworks hold sequencing errors
Outline: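 Polyreactivity labels are assigned by the sorting gate from which each nanobody was recovered. The gates were low and high (top ~1%), set on anti-HA fluorescence for expression and streptavidin fluorescence for reagent binding. Before sorting, galactose-induced (36–48 hours) yeast display cells were stained for 1 hour at 4 °C with 10% biotinylated, detergent-solubilized Sf9 membrane reagent.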

QVQLVESGGGLVQAGGSLRLSCAASGRIFSDYAMGRYRQAPGKDRELVATITTGDSTNYADSVKGRFTISRDNAKNTVYLQMNSLKPEDTAVYYCNADRFADYDYWGQGTQVTVSS
polyreactivity (PSR sort gate): low polyreactivity

QVQLVESGGGLVQAGGSHRLSCAASGIIFWYNAMGWYRQAPGKERELVAAISRGGGNTYADSVKGRFTISRDNAKNTVYLQMKSLKPEDTAVYYCAAKRSGYRFNTRWFRLPKYDYWGQGTQVTVSS
polyreactivity (PSR sort gate): low polyreactivity

QVQLVESGGGLVQAGGSLRLSCADSGIIFNYYAMGWSRQAPGKEREFVASITSSGSSTYYADSVKGRFTITRDNAKNTVYLQMNSLKPEDTAVYYCAARYLWPKQGGGWGYYSCGQGTQVTVSS
polyreactivity (PSR sort gate): high polyreactivity

QVQLVESGGGVVHAGGSLLLSCAASGRTFFRYVKGWYRQEPGKERELVAAISTRGGSTYYADSVKGRFTISRDNAKNTVYLQMNSLKPEDSAVYYCAADVPTGYDYWGQGTQVTVSS
polyreactivity (PSR sort gate): high polyreactivity

QVQLVESGGGLVQAGGSLRLSCAASGSTFIANALGWYRQAPGKEREFVAAITWSGGSTYYADSVKGRFTLSRDNAKNTVFLQMNSLKPEDTAVYYCAKKGRTARGRYDYWGQGTQVTVSS
polyreactivity (PSR sort gate): low polyreactivity

QVQLVESGGGLVQAGGSLRLSCAASGRTFSPYAMAWYRQAPGKEREFVAAIRVRGGSTYYADSVKGRFTISRDNAKNTVYLQMNSLKPEDTAVYYCNAQYLVYNGYPYLYDYWGQGTQVTVSS
polyreactivity (PSR sort gate): high polyreactivity

PVQLVESGGGLVQAGGSLRLSCAASGRTFYKYAMGWYRQAPGKERELVAAISKSGGRTYYADSVKGRFTISRDNAKNTVYLQMNSLKPEDTAVYYCAAEPFIPDQSRYYYWGQGTQVTVSS
polyreactivity (PSR sort gate): high polyreactivity

QVQLEDSGGGLVQAGGTHSLSCAASGFTFARNTMGWYRQAPGKERELVAAISWRGGRTYYADSVTGRFTISRDNAKNTDYLQMNRLKPEDRAVYYCNGVILKLGDALYDYWGEGTQVTVSS
polyreactivity (PSR sort gate): high polyreactivity

QVQLVESGGGLVQAGGSLRLSCAASGIIFGDNAMGLYRQEPGKERELVATISSSASTNYADSVKGRFTISRDNAKNTVYLQMNSLKPEDTAVYYCAADVYSPPNYDYWGQGTQVTVSS
polyreactivity (PSR sort gate): low polyreactivity

QVQLVESGGGLVQAGGSLRLSCAASGRIITYYAMGWYRQAPGKERELVAAITASGSRTYYADSVKGRFTISRDTAKNTVYLQMNSLKPEDTAVYYCAALSRLSPLSGSYYWGQGTQVTVSS
polyreactivity (PSR sort gate): high polyreactivity

QVQLVESGGGLVQAGGSLRLSCAASGRTFRYYAMGWYRQAPGKERELVASITSGGRTYYADSVKGRFTISRDNAKNTVYLQMNSLKPEDTAVYYCAASTRYEGNYWGQGTQVTVSS
polyreactivity (PSR sort gate): high polyreactivity

QVQLVESGGGLVQAGGSLRLSCAHSGFTFTRNAMGWYRQSPGKETELVATISGSGGGTYYADSVKGRFTISRDNAKNTVYLQMNRLKPEDTAVYYCNARRLYSWQGTARYDFWGQGTQVTVSS
polyreactivity (PSR sort gate): low polyreactivity

QVQLVESGGGLVQAGGTLRLSCAASGIIFLVNAMGWYRQAPGKERELVATITSGGSTYADSVKGRFTISRDNAKNTVYLQMNSLKPEDTAVYYCAAVRRRRNSYGYWGQGTQVTVSS
polyreactivity (PSR sort gate): high polyreactivity

QVQLVESGGGLVQAGGSLRLSCAASGGIFVPYAMGWYRQAPGKERELVAGITSGGSTNYADSVKGRFTISRDNAKNTVYLQMNSLKPVDTAVYYCAARRRPGGRYKSRVWYDYWGQGTQVTVSS
polyreactivity (PSR sort gate): high polyreactivity

QVQLVESGGGLVQAGGSLRLSCAASGFTFTSNAMGWYRQAPGKERELVAAISRSGGRTYYADSVKGRFTISRDNAKNTVYLQLNSLKPEDTAVYYCNVRAEKRSYELYAYDYWGQGTQVTVSS
polyreactivity (PSR sort gate): high polyreactivity

QVQLVESGGGLVQAGGSLRLSCAASGIIIHSYTMGWYRPAPGKERELVAAISTSGSTYYADSVKGRFTISRDNAKNTVYLQMHILKPEDTAVYYCNADYAQSGTNSQVGKYGYWGQGTQVTVSS
polyreactivity (PSR sort gate): high polyreactivity

QVQLVESGGGLVQAGGSLRISCAASGFIFIAYAMGWYRQAPGKERELVAAISKSGGNTYYADSVKGRFTISRDNAKNTVYLQMNSLKPEDTAVYYCATRPCYWRYEYWGQGTQVTVSA
polyreactivity (PSR sort gate): high polyreactivity

QVQLVESGGGLVQAGGSLRLSCAASGSIFSRYAMGWYRQAPGKERELVAAISQRAGSTYYADSVKGRFTISRDNAKNTVYLQMNSLKPEDTAVYYCAARRRGRKERGEDYWGQGTQVTVSS
polyreactivity (PSR sort gate): high polyreactivity

QVQLVESGGGLVQAGGSLRLSCAASGSTFQRYAMGWYRQAPGKERELVAAISDGGSTKYADYVKGRFTISRDNAKNTVYLQMNRLKPEDTAVYYCAANYLSRYDYWGQGTQVTVSS
polyreactivity (PSR sort gate): low polyreactivity

QVQLVESGGGLVQAGGSLRLSCAASGNIFVWYDMGWYREAPGKERELVATITSSGGSTYYADSVKGRFTISRDNAKNTVYLQMNSLKPEDTAVYYCNALPYYRDDYWGQGTQVTVSS
polyreactivity (PSR sort gate): low polyreactivity

QVQLVESGRGLVLAGGSLRLSCAASGFIFLEYAMGWYRQAPGKERELVAASSSRGTRTYYADSVKGRFTISRDNAKNTGYLQMNSLKPEDTAVYYCAARSIAPTNLKTYLLDMDYWGQGTQVTVSS
polyreactivity (PSR sort gate): high polyreactivity

QVQLVESGGGLVQAGGSLRLSCAASGLTFNWNAMGWYRQAPGKERELVAAIRSSGGSTYADSVKGRFTISRDNAKNTVYLQMNSLKPEDTAVYYCAARSRVPPAGPRYDYWGQGTQVTVSS
polyreactivity (PSR sort gate): high polyreactivity

QVQLVESGGGLVQAGGSLRLSCAASGLIFYSNAMGWYRQAPGKERELVATISGSTGTTNYADSVKGRFTISRDNAKNTVYLQMNSLKPEDTAVYYCAAEWRRYEYADSWEYDYWGQGTQVTVSS
polyreactivity (PSR sort gate): low polyreactivity

QVQLVESGGGLFQTGGSLRLSRAASGRTFRYYVMGWYRQAPWKESELVAAISWSGGRTNYADSVKGRFTISRDNAKNTVYLQMNCLKPEDTSVYYCIAAGPALRRYDYWGQGTQVTVSS
polyreactivity (PSR sort gate): high polyreactivity

QVQLVESGGGLVQAGGSLRLSCAASGRIFVGYTMGWYRQAPGKERELVAAISSRGGRTNYADSVKGRFTISRDNAKNTVYLQMNSLKPEDTAVYYCATRLYPHQYYYWGQGSQVTVSS
polyreactivity (PSR sort gate): high polyreactivity

QLQLVESGGGLVQAGGSLRLSCAASGRIFGNYAMGWYRQAPGKERELVASINIGGGSTYYADSVKGRFTISRDNAKNTVYLQMNSLKQEATAVYYCAAPNTTDYWPAQPGFDYWGQGTQVTVSS
polyreactivity (PSR sort gate): low polyreactivity

QVQLVESGGGLVQAGGSLRLSCAASGSIFRFYTMGWYRQAPGKQRELVAAISASGGNTYYADSVKGRFTISRDNAKNTVYLQMNSLKPEDTAVYYCARVKFTKYDYWGQGTQVTVSS
polyreactivity (PSR sort gate): high polyreactivity

QVQLVESGGGLVQAGGSLRLSCAASGSIFKINTMGWYRQAPGKERELVAAISKRGGSTYYADSVKGRFTISRDNAKNTVYLQMNSLKTEDTAVYYCAARQFYKYYYWGQGTQVTVSS
polyreactivity (PSR sort gate): high polyreactivity

QVQLVESGGGLVQAGGSLRLSCAASGSTFDGYVMGWYRQAPGKEREFVAAISWSGGSTYYADSVKGRFTISRDNAKNTVYLQMNSLKPEDTAVYYCAARVRRQHGYWGQGTQVTVSS
polyreactivity (PSR sort gate): high polyreactivity

QVQLVESGGGLVQAGGSLRLSSAASGGIFWYYTMGWYRQAPGKERELVAAISWSGGRTYYADSVKGRFTISRDNAKNTVYLQMNSLKPEDTAVYYCAANFRGVLGWYHYEYWGQGTQVTVSS
polyreactivity (PSR sort gate): high polyreactivity

QVQLVESGGGLVQAGGSLRLSCAASGRTFPIYAMGWYRQARGKERELVAAITYSGGSTYYADSVKGRFTISRDNAKNTDYLQMNSQKPEDTAVYYCAVDGTKPYWHQRYDYWGQGTQVTGSS
polyreactivity (PSR sort gate): low polyreactivity

QVQLVESGGGLVQAGGSLRLSCAASGFIFVYNVMGWYRQAPGKERELVAAITSGGSTNYADSVKGRFTISRDNAKNTVFLKMNSLKPEDTAVYYCNADIYPDWIYLLYGYWGQGTQVTVSS
polyreactivity (PSR sort gate): low polyreactivity
